In patent publication US20260028403A1 (Zymeworks, published 2026):
Substitutions are numbered along the chain they refer to. In names and notes the source's numbering stands.

Key:
[1] = molecular target: T1, Recombinant human/cynomolgus/rhesus macaque CD28 mouse IgG2a Fc fusion protein (Acro Biosystems) (human/cynomolgus/rhesus macaque, UniProt P10747 19-152); assay: SPR Biacore T200, CD28-mIgG2a Fc on CM5, construct injected, 1:1 model;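 also: fc fusion captured by amine coupling, run at 25 °C in HEPES buffer pH 7.4, association 140-500 s then dissociation 600-1200 s, values averaged over three independent runs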
T1 construct: bought; also called huCD28
Method: All SPR binding experiments were carried out using a BiacoreT200 instrument at 25° C. with 10 mM HEPES, 150 mM NaCl, 3 mM EDTA, and 0.05% Tween 20 at pH 7.4. Recombinant human/cynomolgus/rhesus macaque CD28 mouse IgG2a Fc fusion protein (Acro Biosystems) was covalently immobilized on CM5 sensor chips by amine coupling. Purified antibody constructs to be tested were injected on the sensor chip at 30 μL/min for 140-500 s following a dissociation for 600-1200 s. Resultant kₒₙ, koff and KD values were determined from fitting the sensorgrams using the 1:1 binding model with reported values as the mean of three independent runs.

huCD28 = huCD28 (human, UniProt P10747 19-152, limits assumed); assay: SPR, OAA format
[2] = molecular target: T2, Recombinant human CD3 epsilon/delta heterodimer, his tag protein (Acro Biosystems) (human, UniProt P07766 23-126; P04234 22-105); assay: SPR Biacore T200, CD3 e/d-his on CM5, construct injected, 1:1 model;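 also: measured at 25 °C in HEPES-buffered saline with EDTA and Tween 20 at pH 7.4, values are means of three independent runs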
T2 construct: bought

B1: v37665 (bispecific antibody, human IgG1, kappa, L234A L235A)
heavy 1: not shown
heavy 2: QVQLVESGGGLVQPGGSLRLSCSVSGIDLSSNPMIWVRQAPGKGLQYIGIIDTDGSTYYADWAKGRFTISKDSTTVYLQINSPRAEDTAVYYCARRLHGSSNGYYDDLWGQGTLVTVSSGGGGSGGGGSGGGGSGGGGSDGQMTQSPSSVSASVGDRVTITCQASQSIYSYLSWYQQKPGQRPKLLIYKASTLASGVPSRFSGSGSGTDFTLTISSVQPEDFATYYCQQGYTVTNVDKNTFGGGTKVEIKAAEPKSSDKTHTCPPCPAPEAAGGPSVFLFPPKPKDTLMISRTPEVTCVVVSVSHEDPEVKFNWYVDGVEVHNAKTKPREEQYNSTYRVVSVLTVLHQDWLNGKEYKCKVSNKALPAPIEKTISKAKGQPREPQVYVLPPSRDELTKNQVSLLCLVKGFYPSDIAVEWESNGQPENNYLTWPPVLDSDGSFFLYSKLTVDKSRWQQGNVFSCSVMHEALHNHYTQKSLSLSPG
light: DIQMTQSPSSLSASVGDRVTITCRASESVEYYVTSLMQWYQQKPGKAPKLLIYAASNVDSGVPSRFSGSGSGTDFTLTISSLQPEDIATYYCQQSRKVPFTFGGGTKVEIKRTVAAPSVFIFPPSDEQLKSGTASVVCLLNNFYPREAKVQWKVDNALQSGNSQESVTEQDSKDSTYSLSSTLTLSKADYEKHKVYACEVTHQGLSSPVTKSFNRGEC
notes: 13B08 VH-VL scFv); also called anti-(CLDN18.2xCD28) bispecific control
B1 was tested, and the Kd [1] was 0.0251 µM, the koff [1] was 0.00224 s⁻¹ and the kon [1] was 89400 M⁻¹ s⁻¹.

B2: v37666 (bispecific antibody, human IgG1, kappa, L234A L235A)
heavy 1: not shown
heavy 2: EPKSSDKTHTCPPCPAPEAAGGPSVFLFPPKPKDTLMISRTPEVTCVVVSVSHEDPEVKFNWYVDGVEVHNAKTKPREEQYNSTYRVVSVLTVLHQDWLNGKEYKCKVSNKALPAPIEKTISKAKGQPREPQVYVLPPSRDELTKNQVSLLCLVKGFYPSDIAVEWESNGQPENNYLTWPPVLDSDGSFFLYSKLTVDKSRWQQGNVFSCSVMHEALHNHYTQKSLSLSPG
light: B1 light
notes: Fc without paratope; also called anti-(CLDN18.2xCD28) bispecific control
B2 was tested, and the Kd [1] was 0.0324 µM, the koff [1] was 0.00217 s⁻¹ and the kon [1] was 67300 M⁻¹ s⁻¹.

B3: v37870 (antibody, V domains shown)
VH: QVQLQESGPGLVKPSETLSLTCAVSGFSLTSYGVHWIRQPPGKGLEWLGVIWPGGGTNFNSALMSRLTISEDTSKNQVSLKLSSVTAADTAVYYCARDRAYGNYLYAMDYWGQGTLVTVSS
VL: DIQMTQSPSSLSASVGDRVTITCRASESVEYYVASLMQWYQQKPGKAPKLLIYAASNVDSGVPSRFSGSGSGTDFTLTISSLQPEDIATYYCQQSRKVPFTFGGGTKVEIK
notes: OAA format as v34891; also called huTN228 T1036A (VL) OAA
In the case of B3, the “Fold-change from WT” value (huCD28) is reported as 3.08 fold, the Kd (huCD28) is reported as 0.271 µM and the koff (huCD28) is reported as 0.0258 s⁻¹. For the same binder, the kon (huCD28) was 96800 M⁻¹ s⁻¹.

B4: v37890 (antibody, V domains shown)
VH: B3 VH with A23T
VL: B3 VL with A34T
notes: OAA format as v34891; also called huTN228 A1024T (VH) OAA
For B4, the “Fold-change from WT” value (huCD28) was 0.66 fold, the Kd (huCD28) was 0.0578 µM and the koff (huCD28) was 0.00349 s⁻¹. The kon (huCD28) was 60800 M⁻¹ s⁻¹.

B5: v37878 (antibody, V domains shown)
VH: B3 VH
VL: B3 VL with A34T, K97A
notes: OAA format as v34891; also called huTN228 K1109A (VL) OAA
B5 was tested, and the “Fold-change from WT” value (huCD28) was 1.93 fold, the Kd (huCD28) was 0.17 µM and the koff (huCD28) was 0.0117 s⁻¹. For the same binder, the kon (huCD28) was 70800 M⁻¹ s⁻¹.

B6: v37882 (antibody, V domains shown)
VH: B3 VH with S31T
VL: B3 VL with A34T
notes: OAA format as v34891; also called huTN228 S1036T (VH) OAA
For B6, the “Fold-change from WT” value (huCD28) was 0.59 fold, the Kd (huCD28) was 0.0517 µM and the koff (huCD28) was 0.00311 s⁻¹. It also gave a kon (huCD28) of 60500 M⁻¹ s⁻¹.

B7: v37898 (antibody, V domains shown)
VH: B3 VH
VL: B3 VL with A34T, M37L, Q38N
notes: OAA format as v34891
For B7, the “Fold-change from WT” value (huCD28) was 0.84 fold, the Kd (huCD28) was 0.0737 µM and the koff (huCD28) was 0.00573 s⁻¹. The kon (huCD28) was 77900 M⁻¹ s⁻¹.

B8: v37884 (antibody, V domains shown)
VH: B3 VH with L105I
VL: B3 VL with A34T
notes: OAA format as v34891; also called huTN228 L1112AI (VH) OAA
With B8 the “Fold-change from WT” value (huCD28) was 1.51 fold, the Kd (huCD28) was 0.133 µM and the koff (huCD28) was 0.00993 s⁻¹. The kon (huCD28) was 76000 M⁻¹ s⁻¹.

B9: v37876 (antibody, V domains shown)
VH: B3 VH
VL: B3 VL with A34T, S60A
notes: OAA format as v34891; also called huTN228 S1069A (VL) OAA
With B9 the “Fold-change from WT” value (huCD28) was 0.64 fold, the Kd (huCD28) was 0.0564 µM and the koff (huCD28) was 0.00326 s⁻¹. The kon (huCD28) was 57800 M⁻¹ s⁻¹.

B10: v37897 (antibody, V domains shown)
VH: B3 VH with V78F
VL: B3 VL with A34T
notes: OAA format as v34891; also called huTN228 V1087F (VH) OAA
With B10 the “Fold-change from WT” value (huCD28) was 0.88 fold, the Kd (huCD28) was 0.0774 µM and the koff (huCD28) was 0.00487 s⁻¹. For the same binder, the kon (huCD28) was 63000 M⁻¹ s⁻¹.

B11: v37879 (antibody, V domains shown)
VH: B3 VH
VL: B3 VL with A34T, V98A
notes: OAA format as v34891; also called huTN228 V1114A (VL) OAA
With B11 the “Fold-change from WT” value (huCD28) was 0.39 fold, the Kd (huCD28) was 0.0347 µM and the koff (huCD28) was 0.00174 s⁻¹. It also gave a kon (huCD28) of 50300 M⁻¹ s⁻¹.

B12: v37891 (antibody, V domains shown)
VH: B3 VH with L48I
VL: B3 VL with A34T
notes: OAA format as v34891; also called huTN228 L1053I (VH) OAA
With B12 the “Fold-change from WT” value (huCD28) was 0.54 fold, the Kd (huCD28) was 0.0477 µM and the koff (huCD28) was 0.0028 s⁻¹. For the same binder, the kon (huCD28) was 58800 M⁻¹ s⁻¹.

B13: v37883 (antibody, V domains shown)
VH: B3 VH with N103Q
VL: B3 VL with A34T
notes: OAA format as v34891; also called huTN228 N1111AQ (VH) OAA
In the case of B13, the “Fold-change from WT” value (huCD28) is reported as 3.81 fold, the Kd (huCD28) is reported as 0.335 µM and the koff (huCD28) is reported as 0.029 s⁻¹. It also gave a kon (huCD28) of 86800 M⁻¹ s⁻¹.

B14: v37875 (antibody, V domains shown)
VH: B3 VH
VL: B3 VL with A34T, D59A
notes: OAA format as v34891; also called huTN228 D1068A (VL) OAA
With B14 the “Fold-change from WT” value (huCD28) was 0.53 fold, the Kd (huCD28) was 0.0466 µM and the koff (huCD28) was 0.00315 s⁻¹. The kon (huCD28) was 67600 M⁻¹ s⁻¹.

B15: v37874 (antibody, V domains shown)
VH: B3 VH
VL: B3 VL with A34T, N57A
notes: OAA format; also called huTN228 N1066A (VL) OAA
B15 was tested, and the “Fold-change from WT” value (huCD28) was 0.59 fold, the Kd (huCD28) was 0.0521 µM and the koff (huCD28) was 0.00321 s⁻¹. The kon (huCD28) was 61800 M⁻¹ s⁻¹.

B16: v37888 (antibody, V domains shown)
VH: B3 VH
VL: B3 VL with A34T, N57Q
notes: OAA format as v34891; also called huTN228 N1066Q (VL) OAA
For B16, the “Fold-change from WT” value (huCD28) was 0.61 fold, the Kd (huCD28) was 0.0538 µM and the koff (huCD28) was 0.00319 s⁻¹. For the same binder, the kon (huCD28) was 59200 M⁻¹ s⁻¹.

B17: v37664 (bispecific antibody)
heavy: QVQLVESGGGLVQPGGSLRLSCSVSGIDLSSNPMIWVRQAPGKGLQYIGIIDTDGSTYYADWAKGRFTISKDSTTVYLQINSPRAEDTAVYYCARRLHGSSNGYYDDLWGQGTLVTVSSGGGGSGGGGSGGGGSGGGGSDGQMTQSPSSVSASVGDRVTITCQASQSIYSYLSWYQQKPGQRPKLLIYKASTLASGVPSRFSGSGSGTDFTLTISSVQPEDFATYYCQQGYTVTNVDKNTFGGGTKVEIKGGGGSGEVQLVESGGGLVQPGGSLRLSCAASGVTFNYYGMSWIRQAPGKGLEWVASITSSGGRIYYPDSVKGRFTISRENTQKTLYLQMNSLRAEDTAVYYCTLDGRDGWVAYWGQGTLVTVSSASTKGPSVFPLAPSSKSTSGGTAALGCLVKDYFPEPVTVSWNSGALTSGVHTFPAVLQSSGLYSLSSVVTVPSSSLGTQTYICNVNHKPSNTKVDKKVEPKSCDKTHTCPPCPAPEAAGGPSVFLFPPKPKDTLMISRTPEVTCVVVSVSHEDPEVKFNWYVDGVEVHNAKTKPREEQYNSTYRVVSVLTVLHQDWLNGKEYKCKVSNKALPAPIEKTISKAKGQPREPQVYVLPPSRDELTKNQVSLLCLVKGFYPSDIAVEWESNGQPENNYLTWPPVLDSDGSFFLYSKLTVDKSRWQQGNVFSCSVMHEALHNHYTQKSLSLSPG
light: NFMLTQPHSVSESPGKTVTISCKRNTGNIGSNYVNWYQQHEGSSPTTIIYRNDKRPDGVSDRFSGSIDRSSKSASLTISNLKTEDEADYFCQSYSSGFIFGGGTKLTVLGQPKAAPSVTLFPPSSEELQANKATLVCLISDFYPGAVTVAWKADSSPVKAGVETTTPSKQSNNKYAASSYLSLTPEQWKSHRSYSCQVTHEGSTVEKTVAPTECS
Fc: not shown
notes: also called anti-(CLDN18.2xCD3) bispecific control
B17 gave a Kd [2] of 0.127 µM, a koff [2] of 0.0228 s⁻¹ and a kon [2] of 180000 M⁻¹ s⁻¹.

B18: v37669 (bispecific antibody)
heavy 1: EVQLVESGGGLVQPGGSLRLSCAASGVTFNYYGMSWIRQAPGKGLEWVASITSSGGRIYYPDSVKGRFTISRENTQKTLYLQMNSLRAEDTAVYYCTLDGRDGWVAYWGQGTLVTVSSASTKGPSVFPLAPSSKSTSGGTAALGCLVKDYFPEPVTVSWNSGALTSGVHTFPAVLQSSGLYSLSSVVTVPSSSLGTQTYICNVNHKPSNTKVDKKVEPKSCDKTHTCPPCPAPEAAGGPSVFLFPPKPKDTLMISRTPEVTCVVVSVSHEDPEVKFNWYVDGVEVHNAKTKPREEQYNSTYRVVSVLTVLHQDWLNGKEYKCKVSNKALPAPIEKTISKAKGQPREPQVYVYPPSRDELTKNQVSLTCLVKGFYPSDIAVEWESNGQPENNYKTTPPVLDSDGSFALVSKLTVDKSRWQQGNVFSCSVMHEALHNHYTQKSLSLSPGGGGGSGNFMLTQPHSVSESPGKTVTISCKRNTGNIGSNYVNWYQQHEGSSPTTIIYRNDKRPDGVSDRFSGSIDRSSKSASLTISNLKTEDEADYFCQSYSSGFIFGGGTKLTVLGGGGSGGGGSGGGGSGGGGSEVQLVESGGGLVQPGGSLRLSCAASGVTFNYYGMSWIRQAPGKGLEWVASITSSGGRIYYPDSVKGRFTISRENTQKTLYLQMNSLRAEDTAVYYCTLDGRDGWVAYWGQGTLVTVSS
heavy 2: B1 heavy 2
light: B17 light
notes: bivalent for CD3; also called 2x1 anti-(CD3xCD3xCLDN18.2) control
Binder B18 has a Kd [2] of 0.00438 µM, a koff [2] of 0.00255 s⁻¹ and a kon [2] of 589000 M⁻¹ s⁻¹.

B19: v37667 (bispecific antibody)
heavy 1: not shown
heavy 2: B1 heavy 2
light: B17 light
notes: as for B18
For B19, the Kd [2] was 0.00593 µM, the koff [2] was 0.00778 s⁻¹ and the kon [2] was 1.28e+06 M⁻¹ s⁻¹.
